According to US20210380703A1 (RIGEL PHARMACEUTICALS, published 2021):

Legend:
[1] = biological target: T1, human ACVR2A (human, UniProt P27037 20-135, limits assumed); assay: ELISA
T1 construct: coated antigen of the initial ELISA; also called activin receptor, type II A
Procedure, shortened: (§1)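 Monoclonal antibodies were first applied to human or mouse ACVR2A, alongside biotinylated goat anti-human kappa light chain (positive control) and human Fc (negative control); binding was then determined by ELISA.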

[2] = biological target: T2, mouse ACVR2A (mouse, UniProt P27038 20-135, limits assumed); assay: ELISA
T2 construct: coated antigen of the initial ELISA
Procedure, shortened: as §1

[3] = biological target: T3, biotinylated goat anti-human kappa light chain; assay: ELISA, positive control
T3 construct: positive control of the ELISA
Protocol: The binding of ACVR2A-specific monoclonal antibodies to human ACVR2A, mouse ACVR2A, biotinylated goat anti-human kappa light chain (positive control) and human Fc (negative control) were determined by ELISA.
Also: test concentration or dose not given here.

T2 sequence (P27038 20-135 limits assumed): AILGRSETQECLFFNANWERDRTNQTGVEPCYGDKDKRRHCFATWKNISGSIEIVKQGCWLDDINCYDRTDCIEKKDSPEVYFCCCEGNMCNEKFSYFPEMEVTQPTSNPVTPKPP
T1 sequence (P27037 20-135 limits assumed): as the sequence (P27038 20-135 limits assumed) above, with R20K, I73V counted along it

| Binder | optical density [1] [OD] | optical density [2] [OD] | optical density [3] [OD] |
| --- | --- | --- | --- |
| 367_G01 (antibody, V domains shown, Group III) VH: EVQLLESGGGLVQPGGSLRLSCAASGFTFDSYGMNWVRQAPGKGLEWVASINYNSGYTGYADSVKGRFTISRDNSKNTLYLQMNSLRAEDTAVYYCARGANWHDTHLDYWGQGTLVTVSS VL: DIQMTQSPSSLSASVGDRVTITCRASQSISSYLNWYQQKPGKAPKLVIYAATSRASGVPSRFSGSGSGTDFTLTISSLQPEDFATYYCQQSYDLPLTFGGGTKVEIK | 1.8 | 1.94 | 3.58 |
| 368_F09 (antibody, V domains shown, Group III) VH: EVQLLESGGGLVQPGGSLRLSCAASGFTFSSYGMNWVRQAPGKGLEWVSGINYNSGYTSYADSVKGRFTISRDNSKNTLYLQMNSLRAEDTAVYYCARGANWHDTHLDYWGQGTLVTVSS VL: DIQMTQSPSSLSASVGDRVTITCRASQSILTYLNWYQQKPGKAPKLLIYAASSLQSGVPSRFSGSGSGTDFTLTISSLQPEDFATYYCQQSYETPLTFGGGTKVEIK | 2.39 | 2.45 | 3.58 |
| 368_B09 (antibody, V domains shown, Group III) VH: EVQLLESGGGLVQPGGSLRLSCAASGFTFDSYGMNWVRQAPGKGLEWVSNINYNGGYKGYADSVKGRFTISRDNSKNTLYLQMNSLRAEDTAVYYCARGANWHDTHLDYWGQGTLVTVSS VL: DIQMTQSPSSLSASVGDRVTITCRASQSILSYLNWYQQKPGKAPKLLIYAATSRHSGVPSRFSGSGSGTDFTLTISSLQPEDFATYYCQQSYDTPLTFGGGTKVEIK | 2.54 | 2.81 | 3.43 |
| 368_E12 (antibody, V domains shown, Group III) VH: EVQLLESGGGLVQPGGSLRLSCAASGFTFSDYGMNWVRQAPGKGLEWVAGINYNGGYTSYADSVKGRFTISRDNSKNTLYLQMNSLRAEDTAVYYCARGANWHDTHLDYWGQGTLVTVSS VL: DIQMTQSPSSLSASVGDRVTITCRASQSIVSYVNWYQQKPGKAPKLVIYAVTSRASGVPSRFSGSGSGTDFTLTISSLQPEDFATYYCQQSYDSPLTFGGGTKVEIK | 1.29 | 1.55 | 3.65 |
| 367_H03 (antibody, V domains shown, Group III) VH: EVQLLESGGGLVQPGGSLRLSCAASGFTFSSYGMNWVRQAPGKGLEWVAGINYNSGYTSYADSVKGRFTISRDNSKNTLYLQMNSLRAEDTAVYYCARGANWHDTHLDYWGQGTLVTVSS VL: DIQMTQSPSSLSASVGDRVTITCRASQSIITYVNWYQQKPGKAPKLLIYAATSLASGVPSRFSGSGSGTDFTLTISSLQPEDFATYYCQQSYDLPLTFGGGTKVEIK | 2.04 | 2.2 | 3.34 |
| 367_H02 (antibody, V domains shown, Group III) VH: EVQLLESGGGLVQPGGSLRLSCAASGFTFDSYGMNWVRQAPGKGLEWVSSINYNGGYTGYADSVKGRFTISRDNSKNTLYLQMNSLRAEDTAVYYCARGANWHDTHLDYWGQGTLVTVSS VL: not shown | 1.08 | 1.2 | 3.62 |
| 369_D09 (antibody, V domains shown, Group III) VH: EVQLLESGGGLVQPGGSLRLSCAASGFTFSDYGMNWVRQAPGKGLEWVSNINYNGGYTSYADSVKGRFTISRDNSKNTLYLQMNSLRAEDTAVYYCARGANWHDTALDYWGQGTLVTVSS VL: DIQMTQSPSSLSASVGDRVTITCRASQSILTYLNWYQQKPGKAPKLLIYAATSRASGVPSRFSGSGSGTDFTLTISSLQPEDFATYYCQQSYDSPLTFGGGTKVEIK | 3.3 | 3.05 | 3.45 |
| 369_A07 (antibody, V domains shown, Group III) VH: EVQLLESGGGLVQPGGSLRLSCAASGFTFSSYSMNWVRQAPGKGLEWVAGINYNGGYKGYADSVKGRFTISRDNSKNTLYLQMNSLRAEDTAVYYCARGANWHDTALDYWGQGTLVTVSS VL: DIQMTQSPSSLSASVGDRVTITCRASQSILSYLNWYQQKPGKAPKLVIYAATSRASGVPSRFSGSGSGTDFTLTISSLQPEDFATYYCQQSYESPLTFGGGTKVEIK | 3.55 | 3.56 | 3.42 |
| 369_C05 (antibody, V domains shown, Group III) VH: EVQLLESGGGLVQPGGSLRLSCAASGFTFDSYSMNWVRQAPGKGLEWVAGINYNGGYTSYADSVKGRFTISRDNSKNTLYLQMNSLRAEDTAVYYCARGANWHDTALDYWGQGTLVTVSS VL: DIQMTQSPSSLSASVGDRVTITCRASQSISSYVNWYQQKPGKAPKLVIYATTSRHSGVPSRFSGSGSGTDFTLTISSLQPEDFATYYCQQSYNSPLTFGGGTKVEIK | 2.54 | 2.72 | 3.02 |
| 368_C08 (antibody, V domains shown, Group III) VH: EVQLLESGGGLVQPGGSLRLSCAASGFTFSDYSMNWVRQAPGKGLEWVSGINYNGGYTSYADSVKGRFTISRDNSKNTLYLQMNSLRAEDTAVYYCARGANWHDTHLDYWGQGTLVTVSS VL: DIQMTQSPSSLSASVGDRVTITCRASQSILTYVNWYQQKPGKAPKLLIYAASSLQSGVPSRFSGSGSGTDFTLTISSLQPEDFATYYCQQSYSTPLTFGGGTKVEIK | 2.26 | 2.43 | 3.38 |
| 369_B05 (antibody, V domains shown, Group III) VH: EVQLLESGGGLVQPGGSLRLSCAASGFTFDSYSMNWVRQAPGKGLEWVSGINYNGGYKSYADSVKGRFTISRDNSKNTLYLQMNSLRAEDTAVYYCARGANWHDTHLDYWGQGTLVTVSS VL: DIQMTQSPSSLSASVGDRVTITCRASQSIISYLNWYQQKPGKAPKLLIYAATSLASGVPSRFSGSGSGTDFTLTISSLQPEDFATYYCQQSYDTPLTFGGGTKVEIK | 2.78 | 3.06 | 3.44 |
| 369_D03 (antibody, V domains shown, Group III) VH: EVQLLESGGGLVQPGGSLRLSCAASGFTFSSYSMNWVRQAPGKGLEWVSGINYNGGYTSYADSVKGRFTISRDNSKNTLYLQMNSLRAEDTAVYYCARGANWHDTHLDYWGQGTLVTVSS VL: DIQMTQSPSSLSASVGDRVTITCRASQSILTYLNWYQQKPGKAPKLVIYAATSRASGVPSRFSGSGSGTDFTLTISSLQPEDFATYYCQQSYENPLTFGGGTKVEIK | 3.28 | 3.55 | 3.61 |
| 368_H05 (antibody, V domains shown, Group III) VH: EVQLLESGGGLVQPGGSLRLSCAASGFTFSSYSMNWVRQAPGKGLEWVANINYNGGYKSYADSVKGRFTISRDNSKNTLYLQMNSLRAEDTAVYYCARGANWHDTHLDYWGQGTLVTVSS VL: DIQMTQSPSSLSASVGDRVTITCRASQSIVSYVNWYQQKPGKAPKLVIYATTSRASGVPSRFSGSGSGTDFTLTISSLQPEDFATYYCQQSYESPLTFGGGTKVEIK | 1.95 | 2.2 | 3.34 |
| 369_D07 (antibody, V domains shown, Group III) VH: EVQLLESGGGLVQPGGSLRLSCAASGFTFSSYGMNWVRQAPGKGLEWVSGINYNGGYKSYADSVKGRFTISRDNSKNTLYLQMNSLRAEDTAVYYCARGANWHDTHLDYWGQGTLVTVSS VL: DIQMTQSPSSLSASVGDRVTITCRASQSIVSYLNWYQQKPGKAPKLVIYAATSRASGVPSRFSGSGSGTDFTLTISSLQPEDFATYYCQQSYDLPLTFGGGTKVEIK | 3.07 | 2.91 | 3.26 |
| 368_A04 (antibody, V domains shown, Group III) VH: EVQLLESGGGLVQPGGSLRLSCAASGFTFDDYSMNWVRQAPGKGLEWVAGINYNGGYKSYADSVKGRFTISRDNSKNTLYLQMNSLRAEDTAVYYCARGANWHDTHLDYWGQGTLVTVSS VL: DIQMTQSPSSLSASVGDRVTITCRASQSILTYLNWYQQKPGKAPKLVIYAVTSRASGVPSRFSGSGSGTDFTLTISSLQPEDFATYYCQQSYELPLTFGGGTKVEIK | 2.35 | 2.35 | 3.56 |
| 368_H02 (antibody, V domains shown, Group III) VH: EVQLLESGGGLVQPGGSLRLSCAASGFTFSSYGMNWVRQAPGKGLEWVAGINYNSGYTSYADSVKGRFTISRDNSKNTLYLQMNSLRAEDTAVYYCARGANWHDTALDYWGQGTLVTVSS VL: DIQMTQSPSSLSASVGDRVTITCRASQSIVTYLNWYQQKPGKAPKLVIYAATSRASGVPSRFSGSGSGTDFTLTISSLQPEDFATYYCQQSYESPLTFGGGTKVEIK | 2.41 | 2.54 | 3.58 |
| 369_E06 (antibody, V domains shown, Group III) VH: EVQLLESGGGLVQPGGSLRLSCAASGFTFSSYGMNWVRQAPGKGLEWVSGINYNGGYTSYADSVKGRFTISRDNSKNTLYLQMNSLRAEDTAVYYCARGANWHDTALDYWGQGTLVTVSS VL: DIQMTQSPSSLSASVGDRVTITCRASQSIISYLNWYQQKPGKAPKLVIYAATSRHSGVPSRFSGSGSGTDFTLTISSLQPEDFATYYCQQSYDSPLTFGGGTKVEIK | 3.13 | 3.11 | 3.52 |
| 368_A03 (antibody, V domains shown, Group III) VH: EVQLLESGGGLVQPGGSLRLSCAASGFTFSSYSMNWVRQAPGKGLEWVSGINYNGGYTGYADSVKGRFTISRDNSKNTLYLQMNSLRAEDTAVYYCARGANWHDTHLDYWGQGTLVTVSS VL: DIQMTQSPSSLSASVGDRVTITCRASQSIISYLNWYQQKPGKAPKLLIYAVTSRASGVPSRFSGSGSGTDFTLTISSLQPEDFATYYCQQSYENPLTFGGGTKVEIK | 2.83 | 2.83 | 3.41 |
| 367_G04 (antibody, V domains shown, Group III) VH: EVQLLESGGGLVQPGGSLRLSCAASGFTFSSYSMNWVRQAPGKGLEWVAGINYNSGYTSYADSVKGRFTISRDNSKNTLYLQMNSLRAEDTAVYYCARGANWHDTHLDYWGQGTLVTVSS VL: DIQMTQSPSSLSASVGDRVTITCRASQSILSYLNWYQQKPGKAPKLVIYAATSRASGVPSRFSGSGSGTDFTLTISSLQPEDFATYYCQQSYDSPLTFGGGTKVEIK | 2.98 | 3.04 | 3.36 |
